Here are results for two molecules from PMC6770826, “HDX and Native Mass Spectrometry Reveals the Different Structural Basis for Interaction of the Staphylococcal Pathogenicity Island Repressor Stl with Dimeric and Trimeric Phage dUTPases” (Biomolecules, 2019).

In series [1] the target is φNM1 phage dUTPase (Staphylococcus aureus phage φNM1) (UniProt A0EWK2). Nature of the series: enzyme inhibition (steady-state dUTPase activity); DUTφNM1 with Stl at 0-300 nM, pre-incubated 5 min; 293 K; 1 mM HEPES-HCl pH 7.5, 5 mM MgCl2, 150 mM KCl, phenol red; quadratic binding equation fitted; apparent.
Series [2] has the same target.
Series [3] shares this target. Briefly: cross-linking; disuccinimidyl suberate (DSS, 20 mM), 20 °C, 1 h; 20 μM each protein alone or 1:1 mixture (40 μM total); SDS-PAGE.
Series [4] deals with Stl repressor protein of S. aureus pathogenicity island SaPIbov1 (Staphylococcus aureus (pathogenicity island SaPIbov1)). The series is described as above.
Series [5] deals with φNM1 phage dUTPase (Staphylococcus aureus phage φNM1) (UniProt A0EWK2). Briefly: native MS; electrospray QTOF, positive ion mode; proteins at 40 μM in 5 mM NH4HCO3 pH 8.0.
Series [6] concerns the molecule itself. Nature of the series: cross-linking; disuccinimidyl suberate (DSS, 20 mM), 20 °C, 1 h; 20 μM each protein alone or 1:1 mixture (40 μM total); SDS-PAGE.

In general, stoichiometry N refers to a count of units in the complex or per binding partner. As for “Stl repressor protein of S. aureus pathogenicity island SaPIbov1 (natural protein)”, in series [1], the Ki came out at 34 nM. In series [2], this molecule yielded a maximal inhibition of the steady-state dUTPase activity of DUTφNM1 by Stl (0-300 nM) of 40%. Further, the stoichiometry N (Stl per DUTφNM1) in series [3] and in series [5] was 1 throughout. Besides, the stoichiometry N in series [4] was found to be 2.

B1: φNM1 phage dUTPase (enzyme)
chain: TNTLTIDQLQELLQIQKEFDDRIPTLNLRDSKIAYVVEFFEWFNTLETFKNWKKKPGKPLDVQLDELADMLAFGLSIANQVGVSSEEIKEAIESSFKDTEFHKMFNFKDKEFAQDAVVSTPQIIFKEFYPDQQAIVIVIDIAYNLYSIDQLIDAYKKKMKRNHERQDGTADAGKGYV
notes: dUTPase of Staphylococcus aureus phage φNM1, Uniprot ID A0EWK2, residues 2-178; monomer mass 20976 Da printed; also called DUTφNM1; homodimeric φNM1 dUTPase; source: E. coli BL21 Rosetta (DE3), purified (glutathione-agarose, on-column thrombin cleavage); not shown: GST, N-terminal, cleaved
As to B1, in series [6], the “stoichiometry N” value was determined as 2.
